Laboratory results reported in patent US7285381.

What was measured:
[1] = biological target: AAV2 capsid VP1 mutant ΔBH (deletion between BsrBI and HindIII cleavage sites of VP-1, 29 amino acids) (AAV2) (UniProt P03135); assay: A20 capsid ELISA on virus stock
[2] = biological target: Wild-type AAV2 capsid (AAV2) (UniProt P03135); assay: A20 capsid ELISA on virus stock
[3] = biological target: AAV2 capsid VP1 mutant ΔXho (deletion between the XhoI-XhoI cleavage sites of VP-1, 62 amino acids) (AAV2) (UniProt P03135); assay: A20 capsid ELISA on virus stock
[4] = biological target: AAV2 capsid VP3 mutant ins447 (insertion after amino acid 447, site YYLSR TNTPS) (AAV2) (UniProt P03135); assay: A20 capsid ELISA on virus stock
[5] = biological target: AAV2 capsid VP1 mutant B+L (insertion of the P1 peptide at the BsrBI cleavage site) (AAV2) (UniProt P03135); assay: A20 capsid ELISA on virus stock
[6] = biological target: AAV2 capsid VP3 mutant ins587 (insertion after amino acid 587, site LQRGN RQAAT) (AAV2) (UniProt P03135); assay: A20 capsid ELISA on virus stock
[7] = biological target: AAV2 capsid VP1 mutant ΔBH+L (deletion between BsrBI and HindIII, and insertion of the P1 peptide) (AAV2) (UniProt P03135); assay: A20 capsid ELISA on virus stock
[8] = biological target: Wild-type AAV2 capsid (AAV2) (UniProt P03135); assay: A20 capsid ELISA on CsCl-purified particles
[9] = biological target: AAV2 capsid mutant I-447 (P1 peptide inserted after amino acid 447) (AAV2) (UniProt P03135); assay: A20 capsid ELISA on CsCl-purified particles
[10] = biological target: AAV2 capsid mutant I-587 (P1 peptide inserted after amino acid 587) (AAV2) (UniProt P03135); assay: A20 capsid ELISA on CsCl-purified particles

With A20 monoclonal antibody the capsid titer (ELISA with A20 MAb) [1] was 4e+09 particles/ml, the capsid titer (ELISA with A20 MAb) [2] was 1e+11 particles/ml and the capsid titer (ELISA with A20 MAb) [3] was 5e+10 particles/ml. For the same substance, the capsid titer (ELISA with A20 MAb) [4] was 4e+10 particles/ml, the capsid titer (ELISA with A20 MAb) [5] was 5e+09 particles/ml and the capsid titer (ELISA with A20 MAb) [6] was 2e+10 particles/ml. It also gave a capsid titer (ELISA with A20 MAb) [7] of 5e+10 particles/ml, a titer (ELISA with A20 MAb) [8] of 6e+12 particles/ml and a titer (ELISA with A20 MAb) [9] of 8e+11 particles/ml. The titer (ELISA with A20 MAb) [10] was 3e+12 particles/ml.
